Values of other authors as cited in article PMC2649756.

Molecular target: βI-spectrin 1898-2083 (Homo sapiens) (UniProt P11277)
Settings: cited from earlier work

Chain of βI-spectrin 1898-2083 (Homo sapiens) (P11277 1898-2083): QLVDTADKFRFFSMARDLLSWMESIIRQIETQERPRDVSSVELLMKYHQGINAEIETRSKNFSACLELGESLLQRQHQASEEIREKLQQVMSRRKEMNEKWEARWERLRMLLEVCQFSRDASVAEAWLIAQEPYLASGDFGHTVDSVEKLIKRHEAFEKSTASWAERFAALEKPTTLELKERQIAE
Chain of αI-spectrin (P02549 whole entry): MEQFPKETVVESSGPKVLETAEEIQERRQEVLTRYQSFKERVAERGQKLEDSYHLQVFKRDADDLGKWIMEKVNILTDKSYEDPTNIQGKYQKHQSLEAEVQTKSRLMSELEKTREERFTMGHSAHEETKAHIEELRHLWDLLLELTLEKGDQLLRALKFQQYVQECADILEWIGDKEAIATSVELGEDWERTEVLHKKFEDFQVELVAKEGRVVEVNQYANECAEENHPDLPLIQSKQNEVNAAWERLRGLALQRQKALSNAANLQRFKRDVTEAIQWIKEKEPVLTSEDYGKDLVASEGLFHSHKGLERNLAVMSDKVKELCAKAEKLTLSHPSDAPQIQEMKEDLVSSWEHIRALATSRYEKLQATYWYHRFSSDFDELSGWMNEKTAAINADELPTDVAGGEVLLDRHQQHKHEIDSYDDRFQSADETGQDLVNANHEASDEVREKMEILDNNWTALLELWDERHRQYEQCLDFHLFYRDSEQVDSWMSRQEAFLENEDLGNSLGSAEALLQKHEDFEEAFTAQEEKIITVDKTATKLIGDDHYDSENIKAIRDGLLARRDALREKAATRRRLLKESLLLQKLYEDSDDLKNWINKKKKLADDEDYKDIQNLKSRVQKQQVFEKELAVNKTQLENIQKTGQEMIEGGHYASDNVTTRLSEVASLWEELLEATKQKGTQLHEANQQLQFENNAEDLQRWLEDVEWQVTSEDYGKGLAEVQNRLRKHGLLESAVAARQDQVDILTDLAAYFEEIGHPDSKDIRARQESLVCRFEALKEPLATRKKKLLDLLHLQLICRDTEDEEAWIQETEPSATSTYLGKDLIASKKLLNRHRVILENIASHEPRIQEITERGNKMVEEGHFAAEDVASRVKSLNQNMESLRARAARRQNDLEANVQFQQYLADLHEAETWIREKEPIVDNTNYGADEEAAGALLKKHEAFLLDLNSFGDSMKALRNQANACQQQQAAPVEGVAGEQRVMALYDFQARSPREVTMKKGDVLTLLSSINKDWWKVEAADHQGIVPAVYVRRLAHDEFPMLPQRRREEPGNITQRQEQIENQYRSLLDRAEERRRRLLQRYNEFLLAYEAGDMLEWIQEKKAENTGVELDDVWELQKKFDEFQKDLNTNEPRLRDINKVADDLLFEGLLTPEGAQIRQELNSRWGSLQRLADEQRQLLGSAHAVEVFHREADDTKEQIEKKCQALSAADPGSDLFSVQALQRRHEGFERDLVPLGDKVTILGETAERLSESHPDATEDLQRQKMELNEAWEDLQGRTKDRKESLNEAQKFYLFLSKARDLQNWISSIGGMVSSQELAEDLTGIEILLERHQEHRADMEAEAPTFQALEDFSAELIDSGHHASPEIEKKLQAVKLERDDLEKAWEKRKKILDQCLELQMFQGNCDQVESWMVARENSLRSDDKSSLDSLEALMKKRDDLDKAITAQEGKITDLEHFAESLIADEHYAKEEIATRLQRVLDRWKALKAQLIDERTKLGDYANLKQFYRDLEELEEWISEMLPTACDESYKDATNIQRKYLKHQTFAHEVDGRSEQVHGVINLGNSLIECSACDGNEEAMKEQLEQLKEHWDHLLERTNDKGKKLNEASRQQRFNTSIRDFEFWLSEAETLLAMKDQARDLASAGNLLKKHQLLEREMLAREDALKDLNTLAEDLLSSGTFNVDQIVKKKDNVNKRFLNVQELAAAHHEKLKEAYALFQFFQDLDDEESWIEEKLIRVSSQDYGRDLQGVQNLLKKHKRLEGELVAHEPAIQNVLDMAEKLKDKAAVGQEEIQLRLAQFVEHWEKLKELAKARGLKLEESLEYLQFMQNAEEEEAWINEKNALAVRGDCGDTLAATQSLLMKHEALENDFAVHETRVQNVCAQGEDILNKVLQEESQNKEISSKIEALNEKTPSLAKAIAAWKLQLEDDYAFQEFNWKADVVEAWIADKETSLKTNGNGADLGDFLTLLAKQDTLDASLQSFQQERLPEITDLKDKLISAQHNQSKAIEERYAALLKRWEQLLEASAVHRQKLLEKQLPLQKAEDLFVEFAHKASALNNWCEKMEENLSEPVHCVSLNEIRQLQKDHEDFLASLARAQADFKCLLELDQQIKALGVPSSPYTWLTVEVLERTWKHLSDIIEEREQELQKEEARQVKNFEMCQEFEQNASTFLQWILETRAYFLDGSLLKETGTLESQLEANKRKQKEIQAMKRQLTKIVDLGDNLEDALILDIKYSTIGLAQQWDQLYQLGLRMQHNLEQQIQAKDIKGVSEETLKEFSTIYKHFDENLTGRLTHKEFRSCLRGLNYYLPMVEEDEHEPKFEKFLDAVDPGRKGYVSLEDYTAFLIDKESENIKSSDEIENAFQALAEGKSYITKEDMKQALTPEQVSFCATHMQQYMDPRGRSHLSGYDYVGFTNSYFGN

Q: With αI-spectrin (from UniProt P02549) as the substance, how does the Kd read?
A: The Kd was 1000 nM.
